T1: soluble recombinant human IL-6 receptor (SR344) (human, UniProt P08887 20-344)
T1 construct: range 1-344; also called soluble IL-6 receptor; soluble human IL-6 receptor
T1 sequence (looked up): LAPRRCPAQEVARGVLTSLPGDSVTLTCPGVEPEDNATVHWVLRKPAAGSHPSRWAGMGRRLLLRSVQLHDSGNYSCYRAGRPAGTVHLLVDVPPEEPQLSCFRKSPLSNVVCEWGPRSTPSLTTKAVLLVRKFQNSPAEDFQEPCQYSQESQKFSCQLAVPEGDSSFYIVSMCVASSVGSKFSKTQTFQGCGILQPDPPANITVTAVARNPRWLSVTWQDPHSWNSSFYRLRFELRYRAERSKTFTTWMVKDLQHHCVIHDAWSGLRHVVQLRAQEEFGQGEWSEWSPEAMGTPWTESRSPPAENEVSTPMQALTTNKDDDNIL


Key:
[1] = target: T1, soluble recombinant human IL-6 receptor …; assay: SPR Biacore T100, 37 C; biotinylated SR344 immobilised via streptavidin as membrane-type IL-6 receptor; ratio of dissociation rates
Description: (§1) The binding to membrane-type IL-6 receptor was assessed by evaluating the binding to soluble human IL-6 receptor immobilized onto the sensor chip. SR344 was biotinylated by a method known to those skilled in the art. Based on the affinity between biotin and streptavidin, biotinylated soluble human IL-6 receptor was immobilized onto the sensor chip via streptavidin. All measurements were conducted at 37° C. The mobile phase buffer was 10 mM MES (pH 5.8), 150 mM NaCl, and 0.05% Tween 20. […] The dissociation rate constant (kd (1/s)) at pH 5.8 was calculated using Biacore T100 Evaluation Software (GE Healthcare) by fitting only the dissociation phase at pH 5.8. The sample concentration was 0.25 pg/ml. Binding was carried out in 10 mM MES (pH 7.4), 150 mM NaCl, and 0.05% Tween 20, and dissociation was carried out in 10 mM MES (pH 5.8), 150 mM NaCl, and 0.05% Tween 20. Likewise, the dissociation rate constant (kd (1/s)) at pH 7.4 was calculated using Biacore T100 Evaluation Software (GE Healthcare) by fitting only the dissociation phase at pH 7.4. The sample concentration was 0.5 pg/ml. Binding was carried out in 10 mM MES (pH 7.4), 150 mM NaCl, and 0.05% Tween 20, and dissociation was carried out in 10 mM MES (pH 7.4), 150 mM NaCl, and 0.05% Tween 20.

[2] = target: T1, soluble recombinant human IL-6 receptor …; assay: SPR Biacore T100; immobilised biotinylated SR344 as membrane-type IL-6 receptor; against TOCILIZUMAB
Description: as §1

kd(pH 5.8)/kd(pH 7.4) pH … [1]	fold increase of pH dependence of the dissociation rate against TOCILIZUMAB [2]	fold improvement of pH dependency of the dissociation rate against TOCILIZUMAB [2]	Binder
1	–	–	TOCILIZUMAB (antibody, human IgG1, kappa, Humanized anti-IL-6 receptor IgG1 antibody; H chain WT-IgG1, L chain WT-kappa; also called TOCILIZUMAB-IgG1; WT-IgG1/WT-kappa) heavy: not shown light: not shown
10.1	–	~10 times	Fv4-M73 (antibody, V domains shown, Fully humanized IL-6 receptor antibody; also called VH3-M73/VL3-kappa) VH: QVQLQESGPGLVKPSETLSLTCAVSGHSISHDHAWSWVRQPPGEGLEWIGFISYSGITNYNPSLQGRVTISRDNSKNTLYLQMNSLRAEDTAVYYCARSLARTTAMDYWGEGTLVTVSS VL: DIQMTQSPSSLSASVGDSVTITCQASTDISSHLNWYQQKPGKAPELLIYYGSHLLSGVPSRFSGSGSGTDFTFTISSLEAEDAATYYCGQGNRLPYTFGQGTKVEIER

The next lines start with the binder.

Binder	kd(pH 5.8)/kd(pH 7.4) pH … [1]	fold increase of pH dependence of the dissociation rate against TOCILIZUMAB [2]	fold improvement of pH dependency of the dissociation rate against TOCILIZUMAB [2]
H3pI/L73 (antibody, human IgG1, kappa, V domains shown, also called H3pI-IgG1/L73-kappa) VH: QVQLQESGPGLVKPSETLSLTCAVSGHSISHDHAHSWVRQPPGEGLEWIGYISYSGITNYNPSLKGRVTISRDTSKNQFSLKLSSVTAADTAAYYCARSLARTTAMDYWGEGTLVTVSS VL: DIQMTQSPSSLSASVGDSVTITCQASQHISSHLNWYQQKPGKAPELLIYYGSHLHSGVPSRFSGSGSGTDFTFTISSLEAEDAATYYCGQGNRLPYTFGQGTKVEIER	–	~2.6 times	–
Fv3-M73 (antibody, V domains shown, Fully humanized IL-6 receptor antibody; also called VH4-M73/VL1-kappa) VH: QVQLQESGPGLVKPSETLSLTCAVSGHSISHDHAWSWVRQPPGEGLEWIGFISYSGITNYNPTLQGRVTISRDNSKNTLYLQMNSLRAEDTAVYYCARSLARTTAMDYWGEGTLVTVSS VL: DIQMTQSPSSLSASVGDSVTITCQASRDISSHLNWYQQKPGKAPELLIYYGSHLLSGVPSRFSGSGSGTDFTFTISSLEAEDAATYYCGQGNRLPYTFGQGTKVEIER	10.9	–	~11 times
